Substrate in this data set: Nc1ncnc2c1ncn2[C@@H]1O[C@H](COP(=O)(O)OC(=O)CCc2c[nH]c3ccccc23)[C@@H](O)[C@H]1O
The data set is described as follows: purified protein. The conditions noted are these: 20 mM HEPES, 1 mM MgCl2, pH 7.2, 25 °C.

B1: human histidine triad nucleotide binding protein 1 (hHint1) (Homo sapiens; H114A) (protein)
chain: ADEIAKAQVARPGGDTIFGKIIRKEIPAKIIFEDDRCLAFHDISPQAPTHFLVIPKKHISQISVAEDDDESLLGHLMIVGKKCAADLGLNKGYRMVVNEGSDGGQSVYHVHLAVLGGRQMHWPPG
On to B1, for which the Km stood at 0.12 ± 0.01 µM, the kcat came to 0.69 ± 0.05 s⁻¹ and the kcat/Km was found to be 6e+06 ± 1e+06 M⁻¹ s⁻¹.

For orientation: Km means the substrate concentration at which the rate is half of its maximum. For orientation: kcat means the number of substrate molecules converted per active site and unit of time at saturation. A word on the kcat/Km: it is the turnover number divided by the Michaelis constant.
